From US20260207798A1, “CYCLIC PEPTIDES AS PET IMAGING AGENTS OF GRANZYME B” (priority 2022, published 2026)
Bridge positions count the residues as written; N and C are the ends. Square brackets hold non-standard residues; d marks the D form. NEtAla = CCN[C@@H](C)C(=O)O; NMeA = CN[C@@H](C)C(=O)O

B1: Compound 44a (peptide)
peptide: {CH2CO}-FNFEDQSPATWQPCG-NH2
modifications: thioether N-14
SMILES: C[C@@H]1NC(=O)[C@@H]2CCCN2C(=O)[C@H](CO)NC(=O)[C@H](CCC(N)=O)NC(=O)[C@H](CC(=O)O)NC(=O)[C@H](CCC(=O)O)NC(=O)[C@H](Cc2ccccc2)NC(=O)[C@H](CC(N)=O)NC(=O)[C@H](Cc2ccccc2)NC(=O)CSC[C@@H](C(=O)NCC(N)=O)NC(=O)[C@@H]2CCCN2C(=O)[C@H](CCC(N)=O)NC(=O)[C@H](Cc2c[nH]c3ccccc23)NC(=O)[C@H]([C@@H](C)O)NC1=O
B2: Compound 72a (peptide)
peptide: {CH2CO}-FNFEDQS[NEtAla]DTWQPCG-NH2
modifications: thioether N-14
SMILES: CCN1C(=O)[C@H](CO)NC(=O)[C@H](CCC(N)=O)NC(=O)[C@H](CC(=O)O)NC(=O)[C@H](CCC(=O)O)NC(=O)[C@H](Cc2ccccc2)NC(=O)[C@H](CC(N)=O)NC(=O)[C@H](Cc2ccccc2)NC(=O)CSC[C@@H](C(=O)NCC(N)=O)NC(=O)[C@@H]2CCCN2C(=O)[C@H](CCC(N)=O)NC(=O)[C@H](Cc2c[nH]c3ccccc23)NC(=O)[C@H]([C@@H](C)O)NC(=O)[C@H](CC(=O)O)NC(=O)[C@@H]1C
B3: Compound 63a (peptide)
peptide: {CH2CO}-FNFEDQGPDTWQPCG-NH2
modifications: thioether N-14
SMILES: C[C@@H](O)[C@@H]1NC(=O)[C@H](CC(=O)O)NC(=O)[C@@H]2CCCN2C(=O)CNC(=O)[C@H](CCC(N)=O)NC(=O)[C@H](CC(=O)O)NC(=O)[C@H](CCC(=O)O)NC(=O)[C@H](Cc2ccccc2)NC(=O)[C@H](CC(N)=O)NC(=O)[C@H](Cc2ccccc2)NC(=O)CSC[C@@H](C(=O)NCC(N)=O)NC(=O)[C@@H]2CCCN2C(=O)[C@H](CCC(N)=O)NC(=O)[C@H](Cc2c[nH]c3ccccc23)NC1=O
B4: Compound 58a (peptide)
peptide: {CH2CO}-FNFEDQSPKTWQPCG-NH2
modifications: thioether N-14
SMILES: C[C@@H](O)[C@@H]1NC(=O)[C@H](CCCCN)NC(=O)[C@@H]2CCCN2C(=O)[C@H](CO)NC(=O)[C@H](CCC(N)=O)NC(=O)[C@H](CC(=O)O)NC(=O)[C@H](CCC(=O)O)NC(=O)[C@H](Cc2ccccc2)NC(=O)[C@H](CC(N)=O)NC(=O)[C@H](Cc2ccccc2)NC(=O)CSC[C@@H](C(=O)NCC(N)=O)NC(=O)[C@@H]2CCCN2C(=O)[C@H](CCC(N)=O)NC(=O)[C@H](Cc2c[nH]c3ccccc23)NC1=O
B5: Compound 70a (peptide)
peptide: {CH2CO}-LNFEDQSPDTWQPCG-NH2
modifications: thioether N-14
SMILES: CC(C)C[C@@H]1NC(=O)CSC[C@@H](C(=O)NCC(N)=O)NC(=O)[C@@H]2CCCN2C(=O)[C@H](CCC(N)=O)NC(=O)[C@H](Cc2c[nH]c3ccccc23)NC(=O)[C@H]([C@@H](C)O)NC(=O)[C@H](CC(=O)O)NC(=O)[C@@H]2CCCN2C(=O)[C@H](CO)NC(=O)[C@H](CCC(N)=O)NC(=O)[C@H](CC(=O)O)NC(=O)[C@H](CCC(=O)O)NC(=O)[C@H](Cc2ccccc2)NC(=O)[C@H](CC(N)=O)NC1=O
B6: Compound 68a (peptide)
peptide: {CH2CO}-FNFEDQSPDTWQ[NEtAla]CG-NH2
modifications: thioether N-14
SMILES: CCN1C(=O)[C@H](CCC(N)=O)NC(=O)[C@H](Cc2c[nH]c3ccccc23)NC(=O)[C@H]([C@@H](C)O)NC(=O)[C@H](CC(=O)O)NC(=O)[C@@H]2CCCN2C(=O)[C@H](CO)NC(=O)[C@H](CCC(N)=O)NC(=O)[C@H](CC(=O)O)NC(=O)[C@H](CCC(=O)O)NC(=O)[C@H](Cc2ccccc2)NC(=O)[C@H](CC(N)=O)NC(=O)[C@H](Cc2ccccc2)NC(=O)CSC[C@@H](C(=O)NCC(N)=O)NC(=O)[C@@H]1C
B7: Compound 59a (peptide)
peptide: {CH2CO}-FNFEDQSPYTWQPCG-NH2
modifications: thioether N-14
SMILES: C[C@@H](O)[C@@H]1NC(=O)[C@H](Cc2ccc(O)cc2)NC(=O)[C@@H]2CCCN2C(=O)[C@H](CO)NC(=O)[C@H](CCC(N)=O)NC(=O)[C@H](CC(=O)O)NC(=O)[C@H](CCC(=O)O)NC(=O)[C@H](Cc2ccccc2)NC(=O)[C@H](CC(N)=O)NC(=O)[C@H](Cc2ccccc2)NC(=O)CSC[C@@H](C(=O)NCC(N)=O)NC(=O)[C@@H]2CCCN2C(=O)[C@H](CCC(N)=O)NC(=O)[C@H](Cc2c[nH]c3ccccc23)NC1=O
B8: Compound 60a (peptide)
peptide: {CH2CO}-FNFEDQSPHTWQPCG-NH2
modifications: thioether N-14
SMILES: C[C@@H](O)[C@@H]1NC(=O)[C@H](Cc2c[nH]cn2)NC(=O)[C@@H]2CCCN2C(=O)[C@H](CO)NC(=O)[C@H](CCC(N)=O)NC(=O)[C@H](CC(=O)O)NC(=O)[C@H](CCC(=O)O)NC(=O)[C@H](Cc2ccccc2)NC(=O)[C@H](CC(N)=O)NC(=O)[C@H](Cc2ccccc2)NC(=O)CSC[C@@H](C(=O)NCC(N)=O)NC(=O)[C@@H]2CCCN2C(=O)[C@H](CCC(N)=O)NC(=O)[C@H](Cc2c[nH]c3ccccc23)NC1=O
B9: Compound 57a (peptide)
peptide: {CH2CO}-FNFEDQSPSTWQPCG-NH2
modifications: thioether N-14
SMILES: C[C@@H](O)[C@@H]1NC(=O)[C@H](CO)NC(=O)[C@@H]2CCCN2C(=O)[C@H](CO)NC(=O)[C@H](CCC(N)=O)NC(=O)[C@H](CC(=O)O)NC(=O)[C@H](CCC(=O)O)NC(=O)[C@H](Cc2ccccc2)NC(=O)[C@H](CC(N)=O)NC(=O)[C@H](Cc2ccccc2)NC(=O)CSC[C@@H](C(=O)NCC(N)=O)NC(=O)[C@@H]2CCCN2C(=O)[C@H](CCC(N)=O)NC(=O)[C@H](Cc2c[nH]c3ccccc23)NC1=O
B10: Compound 67a (peptide)
peptide: {CH2CO}-FNFEDQSPDTWQ[NMeA]CG-NH2
modifications: thioether N-14
SMILES: C[C@@H](O)[C@@H]1NC(=O)[C@H](CC(=O)O)NC(=O)[C@@H]2CCCN2C(=O)[C@H](CO)NC(=O)[C@H](CCC(N)=O)NC(=O)[C@H](CC(=O)O)NC(=O)[C@H](CCC(=O)O)NC(=O)[C@H](Cc2ccccc2)NC(=O)[C@H](CC(N)=O)NC(=O)[C@H](Cc2ccccc2)NC(=O)CSC[C@@H](C(=O)NCC(N)=O)NC(=O)[C@H](C)N(C)C(=O)[C@H](CCC(N)=O)NC(=O)[C@H](Cc2c[nH]c3ccccc23)NC1=O
B11: Compound 65a (peptide)
peptide: {CH2CO}-FNFEDQSPGTWQPCG-NH2
modifications: thioether N-14
SMILES: C[C@@H](O)[C@@H]1NC(=O)CNC(=O)[C@@H]2CCCN2C(=O)[C@H](CO)NC(=O)[C@H](CCC(N)=O)NC(=O)[C@H](CC(=O)O)NC(=O)[C@H](CCC(=O)O)NC(=O)[C@H](Cc2ccccc2)NC(=O)[C@H](CC(N)=O)NC(=O)[C@H](Cc2ccccc2)NC(=O)CSC[C@@H](C(=O)NCC(N)=O)NC(=O)[C@@H]2CCCN2C(=O)[C@H](CCC(N)=O)NC(=O)[C@H](Cc2c[nH]c3ccccc23)NC1=O
B12: Compound 56a (peptide)
peptide: {CH2CO}-FNFEDQSPQTWQPCG-NH2
modifications: thioether N-14
SMILES: C[C@@H](O)[C@@H]1NC(=O)[C@H](CCC(N)=O)NC(=O)[C@@H]2CCCN2C(=O)[C@H](CO)NC(=O)[C@H](CCC(N)=O)NC(=O)[C@H](CC(=O)O)NC(=O)[C@H](CCC(=O)O)NC(=O)[C@H](Cc2ccccc2)NC(=O)[C@H](CC(N)=O)NC(=O)[C@H](Cc2ccccc2)NC(=O)CSC[C@@H](C(=O)NCC(N)=O)NC(=O)[C@@H]2CCCN2C(=O)[C@H](CCC(N)=O)NC(=O)[C@H](Cc2c[nH]c3ccccc23)NC1=O
B13: Compound 46a (peptide)
peptide: {CH2CO}-FNFEDQSPRTWQPCG-NH2
modifications: thioether N-14
SMILES: C[C@@H](O)[C@@H]1NC(=O)[C@H](CCCNC(=N)N)NC(=O)[C@@H]2CCCN2C(=O)[C@H](CO)NC(=O)[C@H](CCC(N)=O)NC(=O)[C@H](CC(=O)O)NC(=O)[C@H](CCC(=O)O)NC(=O)[C@H](Cc2ccccc2)NC(=O)[C@H](CC(N)=O)NC(=O)[C@H](Cc2ccccc2)NC(=O)CSC[C@@H](C(=O)NCC(N)=O)NC(=O)[C@@H]2CCCN2C(=O)[C@H](CCC(N)=O)NC(=O)[C@H](Cc2c[nH]c3ccccc23)NC1=O

Each binder was assayed against T1, human Granzyme B (human, UniProt P10144 21-247) (assay: SPR, Biacore 8k+, hGranzyme B captured on SA chip, single cycle kinetics, 1:1 model).
T1 construct: Captured on a Series S Streptavidin chip for SPR; also called hGranzyme B; GzmB
T1 sequence (P10144 21-247 limits assumed): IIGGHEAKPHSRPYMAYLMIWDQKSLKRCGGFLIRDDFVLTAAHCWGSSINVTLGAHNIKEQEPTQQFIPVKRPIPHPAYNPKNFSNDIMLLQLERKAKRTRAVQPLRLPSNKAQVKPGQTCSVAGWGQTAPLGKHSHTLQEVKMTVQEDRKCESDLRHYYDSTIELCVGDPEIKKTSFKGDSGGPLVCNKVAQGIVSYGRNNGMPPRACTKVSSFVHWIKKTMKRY
Description: The kinetics of test peptide binding to human Granzyme B (hGranzyme B) was determined by SPR. All experiments were performed at 25° C. using the Biacore 8k+ instrument (Cytiva, Marlborough, MA). The Biacore 8k+ Insight Evaluation Software Version 3.0 was used to fit the data with a 1:1 binding model to determine the association rate constant kₐ (M⁻¹s⁻¹, where “M” ~equals molar and “s” ~equals seconds) and the dissociation rate constant kd (s⁻¹). These rate constants were used to calculate the equilibrium dissociation constant. KD (M)=kd/kₐ.
To measure the binding kinetics of peptides of interest, surfaces were prepared by a capture method to a Series S Streptavidin (SA) chip using a 1×HBS-EP+ running buffer (Cytiva). hGranzyme B was diluted to 10 μg/mL in IX HBS-EP+ and flowed over spot 2 of each flow cell on the chip at a flow rate of 10 ul/min for 20 s to achieve a level of capture of ~1100 RU. An unmodified spot 1 of each flow cell was used as a matrix binding control or reference surface. Binding kinetics were measured using single cycle kinetics at 25° C. by injecting 5 concentrations with 3-fold serial dilutions of test peptides from 0.01 μM to 1 μM. Compound dilutions were performed manually in a running buffer containing 1×HBS-EP+(Cytiva), and a final concentration of 2% DMSO. The interaction analyses over hGranzyme B, were performed using a 120 s association time and a 900 s dissociation time. All experiments were conducted at a flow rate of 50 μL/min with a data collection rate of 10 Hz.
Peptide dilution series included 2 zero concentration points (no compound) which were averaged and subtracted from the peptide concentration injection as DMSO control responses. Binding data acquired from the reference surface (matrix binding control) were subtracted from the binding data for hGranzyme B surface on the chip to determine specific binding. Next, the association phase data were solvent corrected to account for any signal fluctuation throughout the experiment due to subtle DMSO concentration differences. Corrected response data were analyzed using the Biacore 8k+ Evaluation Software Version 3.0 according to the manufacturer. SPR data for representative compounds of the disclosure are found in Table 8.

| Kd [nM] | Binder |
| --- | --- |
| 3.5 | B1 |
| 20.2 | B2 |
| 7.1 | B3 |
| 5.9 | B4 |
| 18.5 | B5 |
| 15.6 | B6 |
| 6 | B7 |
| 6.1 | B8 |
| 5.7 | B9 |
| 12.4 | B10 |
| 11 | B11 |
| 5.5 | B12 |
| 3.8 | B13 |
